{"source": "patent US20240209330A1", "about": "(10X GENOMICS, published 2024)", "molecular_target": "T1, recombinant Phi29 polymerase-SpyTag fusion protein (Bacillus phage phi29 (Bacteriophage …, UniProt P03680 2-575))", "T1 construct": "Expressed in E. coli with an amino terminal polyhistidine/SUMO tag (N-His/SUMO); The tag was cleaved with ULP1; also called N-His/SUMO Phi29 polymerase-SpyTag fusion protein; Phi29 with K-linker-SpyTag003", "T1 sequence": "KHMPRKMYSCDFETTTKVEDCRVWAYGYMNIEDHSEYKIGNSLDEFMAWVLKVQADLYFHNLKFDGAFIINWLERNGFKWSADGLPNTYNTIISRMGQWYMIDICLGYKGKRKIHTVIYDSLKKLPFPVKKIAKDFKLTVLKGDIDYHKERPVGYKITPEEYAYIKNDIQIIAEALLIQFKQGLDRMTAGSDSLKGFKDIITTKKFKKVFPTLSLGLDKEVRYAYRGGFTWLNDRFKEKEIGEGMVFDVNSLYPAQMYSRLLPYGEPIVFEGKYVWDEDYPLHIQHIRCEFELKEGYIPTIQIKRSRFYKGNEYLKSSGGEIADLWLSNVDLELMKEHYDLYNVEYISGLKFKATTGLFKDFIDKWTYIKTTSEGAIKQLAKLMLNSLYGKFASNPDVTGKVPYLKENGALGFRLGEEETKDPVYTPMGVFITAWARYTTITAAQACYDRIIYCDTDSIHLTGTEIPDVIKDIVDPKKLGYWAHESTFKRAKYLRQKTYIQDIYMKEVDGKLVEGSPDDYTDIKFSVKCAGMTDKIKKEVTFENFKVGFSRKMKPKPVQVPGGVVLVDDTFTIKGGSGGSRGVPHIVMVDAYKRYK", "assay": "co-expression in E. coli, nickel purification, SDS-PAGE (covalent SpyCatcher:SpyTag coupling)", "from_the_text": "N-His/SUMO recombinant Phi29 polymerase-SpyCatcher fusion protein and recombinant Phi29 polymerase-SpyTag fusion protein were expressed as described in Example 3. The soluble fraction was collected and run on a nickel column. The SDS-PAGE for the various fractions are shown in FIG. 9A (SpyCatcher) and FIG. 9B (SpyTag). The SUMO tag was cleaved using a recombinant Ubl-specific protease 1 (ULP1). Fractions were collected for pre- and post-cleavage of the N-His/SUMO tag, as shown in FIG. 10A (SpyCatcher) and FIG. 10B (SpyTag). Each elution fraction was collected as 1 mL aliquots using an 80-100% gradient of 1 M NaCl.\nWhen the Phi29 polymerase-SpyCatcher fusion protein, the Phi29 polymerase-SpyTag fusion protein were co-expressed in E. coli, a dimer of fusion proteins (e.g., a dimer of Phi29 polymerase-SpyCatcher:Phi29 polymerase-SpyTag; comprising two Phi29 polymerase domains), with an approximate molecular weight of 147.974 kDa, was generated based on the protein coupling between SpyCatcher:SpyTag. (FIG. 10C, lane 3)."}
{"binder": "recombinant Phi29 polymerase-SpyCatcher fusion protein (enzyme, Expressed in E. coli with an amino terminal polyhistidine/SUMO tag (N-His/SUMO); The tag was cleaved with ULP1; also called N-His/SUMO Phi29 polymerase-SpyCatcher fusion protein; Phi29 with K-linker-SpyCatcher003) KHMPRKMYSCDFETTTKVEDCRVWAYGYMNIEDHSEYKIGNSLDEFMAWVLKVQADLYFHNLKFDGAFIINWLERNGFKWSADGLPNTYNTIISRMGQWYMIDICLGYKGKRKIHTVIYDSLKKLPFPVKKIAKDFKLTVLKGDIDYHKERPVGYKITPEEYAYIKNDIQIIAEALLIQFKQGLDRMTAGSDSLKGFKDIITTKKFKKVFPTLSLGLDKEVRYAYRGGFTWLNDRFKEKEIGEGMVFDVNSLYPAQMYSRLLPYGEPIVFEGKYVWDEDYPLHIQHIRCEFELKEGYIPTIQIKRSRFYKGNEYLKSSGGEIADLWLSNVDLELMKEHYDLYNVEYISGLKFKATTGLFKDFIDKWTYIKTTSEGAIKQLAKLMLNSLYGKFASNPDVTGKVPYLKENGALGFRLGEEETKDPVYTPMGVFITAWARYTTITAAQACYDRIIYCDTDSIHLTGTEIPDVIKDIVDPKKLGYWAHESTFKRAKYLRQKTYIQDIYMKEVDGKLVEGSPDDYTDIKFSVKCAGMTDKIKKEVTFENFKVGFSRKMKPKPVQVPGGVVLVDDTFTIKGGSGGSVTTLSGLSGEQGPSGDMTTEEDSATHIKFSKRDEDGRELAGATMELRDSSGKTISTWISDGHVKDFYLYPGKYTFVETAAPDGYEVATPIEFTVNEDGQVTVDGEATEGDAHT", "values": [{"measurement": "binding result", "result": "binds"}]}
